The target of the experiment is integrin α5β1 on cells (human (endogenous in K562 and MCF10A), UniProt P08648;P05556). The experiment is described as follows: flow cytometry on cells. A general note: A flow cytometer gives signals particle by particle.

The results in this text go back to publication PMC11230231 (bioRxiv, 2024).

integrin α5β1 on cells, sequence (P08648 42-1049, chain 1 of 2): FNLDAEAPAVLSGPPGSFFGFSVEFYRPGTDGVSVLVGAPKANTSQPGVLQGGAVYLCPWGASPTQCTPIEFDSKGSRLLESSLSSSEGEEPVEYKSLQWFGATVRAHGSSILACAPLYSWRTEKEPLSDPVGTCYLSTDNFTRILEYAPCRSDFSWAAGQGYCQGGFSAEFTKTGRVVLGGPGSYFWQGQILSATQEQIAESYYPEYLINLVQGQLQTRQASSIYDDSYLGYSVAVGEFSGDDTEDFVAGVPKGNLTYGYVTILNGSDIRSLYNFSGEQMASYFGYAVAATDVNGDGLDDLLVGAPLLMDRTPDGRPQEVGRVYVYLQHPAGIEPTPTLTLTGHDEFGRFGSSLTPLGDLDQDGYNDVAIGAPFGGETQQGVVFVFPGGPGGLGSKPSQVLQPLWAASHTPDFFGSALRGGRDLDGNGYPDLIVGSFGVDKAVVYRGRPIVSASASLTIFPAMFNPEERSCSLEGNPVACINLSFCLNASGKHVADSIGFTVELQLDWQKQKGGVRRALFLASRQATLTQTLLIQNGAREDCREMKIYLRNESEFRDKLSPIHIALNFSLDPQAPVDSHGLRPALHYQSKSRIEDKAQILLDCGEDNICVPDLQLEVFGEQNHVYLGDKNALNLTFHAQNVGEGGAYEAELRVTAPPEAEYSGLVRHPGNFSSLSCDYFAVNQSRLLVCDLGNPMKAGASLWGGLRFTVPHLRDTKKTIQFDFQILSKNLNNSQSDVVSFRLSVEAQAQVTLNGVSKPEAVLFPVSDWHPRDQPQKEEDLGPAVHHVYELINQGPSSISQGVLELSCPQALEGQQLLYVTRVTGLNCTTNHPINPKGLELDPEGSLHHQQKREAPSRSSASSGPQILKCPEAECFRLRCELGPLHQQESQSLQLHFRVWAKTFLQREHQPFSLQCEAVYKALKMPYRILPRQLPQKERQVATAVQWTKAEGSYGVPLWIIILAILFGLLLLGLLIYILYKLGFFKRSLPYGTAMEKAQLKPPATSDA
integrin α5β1 on cells, sequence (P05556 21-798, chain 2 of 2): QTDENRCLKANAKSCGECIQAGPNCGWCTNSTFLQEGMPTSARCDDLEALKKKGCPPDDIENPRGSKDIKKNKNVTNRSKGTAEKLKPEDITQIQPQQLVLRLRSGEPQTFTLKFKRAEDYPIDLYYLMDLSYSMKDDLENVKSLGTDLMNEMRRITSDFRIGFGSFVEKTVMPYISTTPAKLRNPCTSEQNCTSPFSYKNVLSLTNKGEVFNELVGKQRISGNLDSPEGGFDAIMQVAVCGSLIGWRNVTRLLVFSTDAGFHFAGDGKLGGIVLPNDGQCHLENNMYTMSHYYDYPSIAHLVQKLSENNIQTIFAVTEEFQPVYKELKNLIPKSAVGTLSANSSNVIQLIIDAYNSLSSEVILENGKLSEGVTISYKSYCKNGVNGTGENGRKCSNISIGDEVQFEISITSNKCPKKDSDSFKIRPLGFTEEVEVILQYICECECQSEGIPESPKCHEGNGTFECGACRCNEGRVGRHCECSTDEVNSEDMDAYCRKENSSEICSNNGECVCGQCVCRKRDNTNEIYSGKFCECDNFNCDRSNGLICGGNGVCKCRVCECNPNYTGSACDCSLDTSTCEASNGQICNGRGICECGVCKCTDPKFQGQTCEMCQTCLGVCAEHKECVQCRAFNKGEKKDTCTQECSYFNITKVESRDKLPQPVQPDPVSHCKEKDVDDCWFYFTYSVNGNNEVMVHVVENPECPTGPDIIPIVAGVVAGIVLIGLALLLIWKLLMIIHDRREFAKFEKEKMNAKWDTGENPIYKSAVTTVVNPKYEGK

B1: RGD peptide (GRRGDGATGH) (peptide)
peptide: GRRGDGATGH
Regarding B1, the Kd was found to be 150 ± 20 µM.

The Kd is the constant that tells how readily two partners part at equilibrium. Lower therefore signals a tighter complex.
